From paper doi:10.1101/2025.08.04.668392 (bioRxiv, 2025)

How the values were obtained:
[1] = target: His-tagged Importin β (Impβ), H. sapiens, from pQE60-Impβ (human) (UniProt Q14974); assay: ITC
[2] = target: His-tagged Importin β (Impβ), H. sapiens, from pQE60-Impβ (human, UniProt Q14974 1-876); assay: ITC
[3] = target: Importin β (hsImpβ) of the purified trimeric complex Impβ:Imp7:H1.11L-chick (human, UniProt Q14974 1-876); assay: cross-linking
Sequence of Importin β (hsImpβ) of the purified trimeric complex Impβ:Imp7:H1.11L-chick (Q14974 whole entry, one chain of several): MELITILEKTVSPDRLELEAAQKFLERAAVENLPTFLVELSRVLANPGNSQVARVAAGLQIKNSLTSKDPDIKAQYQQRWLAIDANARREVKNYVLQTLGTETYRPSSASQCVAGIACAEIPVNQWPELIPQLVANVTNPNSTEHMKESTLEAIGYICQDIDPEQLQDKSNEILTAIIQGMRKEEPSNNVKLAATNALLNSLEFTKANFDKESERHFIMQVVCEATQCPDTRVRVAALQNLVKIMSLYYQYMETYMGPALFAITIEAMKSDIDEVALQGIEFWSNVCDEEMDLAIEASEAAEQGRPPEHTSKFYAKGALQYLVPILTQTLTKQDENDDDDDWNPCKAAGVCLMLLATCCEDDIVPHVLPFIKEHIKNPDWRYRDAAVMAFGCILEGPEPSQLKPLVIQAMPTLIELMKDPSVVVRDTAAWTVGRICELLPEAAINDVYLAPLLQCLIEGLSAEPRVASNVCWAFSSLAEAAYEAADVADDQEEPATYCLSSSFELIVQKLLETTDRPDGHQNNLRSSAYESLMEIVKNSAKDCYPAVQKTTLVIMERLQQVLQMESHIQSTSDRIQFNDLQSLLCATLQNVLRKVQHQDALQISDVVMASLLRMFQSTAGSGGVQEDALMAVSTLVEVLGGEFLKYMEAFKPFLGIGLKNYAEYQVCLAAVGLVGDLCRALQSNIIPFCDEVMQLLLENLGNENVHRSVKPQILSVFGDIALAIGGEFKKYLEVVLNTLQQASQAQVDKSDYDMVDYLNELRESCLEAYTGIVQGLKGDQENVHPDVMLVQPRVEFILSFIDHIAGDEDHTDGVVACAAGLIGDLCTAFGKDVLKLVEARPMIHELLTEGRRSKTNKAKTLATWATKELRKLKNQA

Sequence of His-tagged Importin β (Impβ), H. sapiens, from pQE60-Impβ (human) (Q14974 whole entry): as the sequence (Q14974 whole entry, one chain of several) above
Sequence of His-tagged Importin β (Impβ), H. sapiens, from pQE60-Impβ (Q14974 whole entry): as the sequence (Q14974 whole entry, one chain of several) above

For “GST-tagged Imp7 (1002-1038) fragment P1024G (domain or fragment)”, the fold reduction of binding against the wild-type NlB region (1002-1038) [1] was 7 fold.

In the case of “GST-tagged Imp7 (1002-1038) fragment V1023T (domain or fragment)”, the fold reduction of affinity against the wild-type NlB region (1002-1038) [1] is reported as 4 fold.

Work on “GST-tagged Imp7 (1002-1038) fragment V1023E (domain or fragment)” yielded a fold reduction of affinity against the wild-type NlB region (1002-1038) [1] of 15 fold.

For RRAAHESKMIEKHGGYKYNAPVVPSTFNFGNPAPGMN (domain or fragment, X. laevis, UniProt O42480 1002-1038, looked up) [GST-tagged Imp7 (1002-1038) fragment F1019Y], the “fold reduction of affinity against the wild-type NlB region (1002-1038)” value [2] was ≥ 5 fold.

For RRAAHESKMIEKHGGYKFNAPVVPSTFSFGNPAPGMN (domain or fragment, X. laevis, UniProt O42480 1002-1038, looked up) [GST-tagged Imp7 (1002-1038) fragment N1029S], the “fold increase of affinity against the wild-type NlB region (1002-1038)” value [2] was ~2 fold.

RRAAHESKMIEKHGGYKFNAPVVPSTYNFGNPAPGMN (domain or fragment, X. laevis, UniProt O42480 1002-1038, looked up) [GST-tagged Imp7 (1002-1038) fragment F1028Y] was tested, and the “fold reduction of affinity against the wild-type NlB region (1002-1038)” value [2] was ≥ 5 fold.

For RRAAHESKMIEKHGGYKFNAPVVPSTFNYGNPAPGMN (domain or fragment, X. laevis, UniProt O42480 1002-1038, looked up) [GST-tagged Imp7 (1002-1038) fragment F1030Y], the “fold reduction of affinity against the wild-type NlB region (1002-1038)” value [2] was ≥ 5 fold.

For RRAAHESKMIEKHGGYKFNAPVVPSTFNFGGPAPGMN (domain or fragment, X. laevis, UniProt O42480 1002-1038, looked up) [GST-tagged Imp7 (1002-1038) fragment N1032G], the “fold increase of affinity against the wild-type NlB region (1002-1038)” value [2] was ~2 fold.

GYKFNAPVVPSTFNF (domain or fragment, X. laevis, UniProt O42480 1016-1030, looked up) [GST-NlB 1016-1030] was tested, and the “fold reduction of affinity against the NlB region (1002-1038)” value [2] was ~4 fold.

B1: Histone H1.11L from chicken (natural protein, chicken (Gallus gallus), UniProt P08287 1-225, looked up)
chain: MSETAPAPAAEAAPAAAPAPAKAAAKKPKKAAGGAKARKPAGPSVTELITKAVSASKERKGLSLAALKKALAAGGYDVEKNNSRIKLGLKSLVSKGTLVQTKGTGASGSFRLSKKPGEVKEKAPKKKASAAKPKKPAAKKPAAAAKKPKKAVAVKKSPKKAKKPAASATKKSAKSPKKVTKAVKPKKAVAAKSPAKAKAVKPKAAKPKAAKPKAAKAKKAAAKKK
B1: binds [3].
